Values of other authors as cited in article PMC6105697.
pKd: −log10 of the molar value.

Target: NKG2D (Homo sapiens) (UniProt P26718)
Assay: surface plasmon resonance

Chain of UniProt P26718 (P26718 whole entry): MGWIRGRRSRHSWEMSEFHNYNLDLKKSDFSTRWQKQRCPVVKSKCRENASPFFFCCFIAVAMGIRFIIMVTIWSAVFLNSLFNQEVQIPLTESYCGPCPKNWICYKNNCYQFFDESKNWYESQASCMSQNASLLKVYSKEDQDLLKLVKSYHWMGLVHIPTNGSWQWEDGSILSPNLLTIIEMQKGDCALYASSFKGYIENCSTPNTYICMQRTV

In the case of ULBP0602 (from UniProt Q5VY80), the pKd is listed as 7.81.
